Assay results reported in US20250042994A1 (HAINAN SIMCERE ZAIMING PHARMACEUTICAL, published 2025).
Substitutions are numbered along the chain they refer to. Values belong to the binder of their own block, whether it stands above or below them.

Experiments:
Human CD19-his protein [1] = target: T1, Human CD19-his protein (human, UniProt P15391 20-291); test: SPR Biacore, method of example 7.1, human CD19-His
T1 construct: bought protein; also called recombinant human CD19-His; CD19 full-length protein; not shown: His tag
T1 sequence (looked up): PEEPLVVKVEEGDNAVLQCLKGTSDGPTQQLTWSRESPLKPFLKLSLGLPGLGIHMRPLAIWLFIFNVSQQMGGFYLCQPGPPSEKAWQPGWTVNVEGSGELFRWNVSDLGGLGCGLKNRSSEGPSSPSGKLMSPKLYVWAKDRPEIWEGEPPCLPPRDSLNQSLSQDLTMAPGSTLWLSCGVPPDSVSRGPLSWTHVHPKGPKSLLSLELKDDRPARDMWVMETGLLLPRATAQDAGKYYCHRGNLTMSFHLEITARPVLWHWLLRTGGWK
Procedure: A sample buffer and a running buffer were HBS-EP+ (10 mM HEPES, 150 mM NaCl, 3 mM EDTA and 0.05% surfactant P20) (GE Healthcare; BR-1006-69). The flow-through cell was set to 25° C. The sample block was set to 16° C. Both were pretreated with the running buffer. In each cycle, an antibody to be detected was first captured with a Protein A chip, and then a single concentration of CD19 antigen protein was injected. The binding and dissociation processes of the antibody and the antigen protein were recorded, and finally Glycine pH 1.5 (GE Healthcare; BR-1003-54) was used to complete chip regeneration. The binding was measured by injecting different concentrations of recombinant human CD19-His proteins in a solution for 240 s with a flow rate of 30 μl/min. The concentration started from 200 nM (see the detailed results for the actual concentration in the test) and was diluted at 1:1, making a total of 5 concentrations. The dissociation phase was monitored for up to 600 s and was triggered by switching from sample solution to running buffer. The surface was regenerated by washing with a 10 mM glycine solution (pH 1.5) for 30 s at a flow rate of 30 μl/min. Bulk refractive index difference was corrected by subtracting the response obtained from the goat anti-human Fc surface. Blank injection was also subtracted (=double reference). For calculation of apparent KD and other kinetic parameters, Langmuir 1:1 model was used.
SPR (biacore) detection and data analysis were performed according to the method in example 7.1.

[2] = target: T2, human CD19 exon1-3-His tag protein (human, UniProt P15391 20-186, limits assumed); test: ELISA, coated human CD19 exon 1-3-His
T2 construct: membrane-distal part of the extracellular region, made in HEK293E cells; not shown: His tag
T2 sequence (looked up): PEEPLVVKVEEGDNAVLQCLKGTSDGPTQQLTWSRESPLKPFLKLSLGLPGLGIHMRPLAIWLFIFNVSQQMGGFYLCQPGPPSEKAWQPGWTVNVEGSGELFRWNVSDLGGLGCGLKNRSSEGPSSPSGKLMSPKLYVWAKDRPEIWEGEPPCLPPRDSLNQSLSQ

human CD19 on Raji cells = target: T3, human CD19 on Raji cells (human, UniProt P15391 20-556); test: FACS on Raji cells
T3 construct: whole, on cells
T3 sequence (looked up): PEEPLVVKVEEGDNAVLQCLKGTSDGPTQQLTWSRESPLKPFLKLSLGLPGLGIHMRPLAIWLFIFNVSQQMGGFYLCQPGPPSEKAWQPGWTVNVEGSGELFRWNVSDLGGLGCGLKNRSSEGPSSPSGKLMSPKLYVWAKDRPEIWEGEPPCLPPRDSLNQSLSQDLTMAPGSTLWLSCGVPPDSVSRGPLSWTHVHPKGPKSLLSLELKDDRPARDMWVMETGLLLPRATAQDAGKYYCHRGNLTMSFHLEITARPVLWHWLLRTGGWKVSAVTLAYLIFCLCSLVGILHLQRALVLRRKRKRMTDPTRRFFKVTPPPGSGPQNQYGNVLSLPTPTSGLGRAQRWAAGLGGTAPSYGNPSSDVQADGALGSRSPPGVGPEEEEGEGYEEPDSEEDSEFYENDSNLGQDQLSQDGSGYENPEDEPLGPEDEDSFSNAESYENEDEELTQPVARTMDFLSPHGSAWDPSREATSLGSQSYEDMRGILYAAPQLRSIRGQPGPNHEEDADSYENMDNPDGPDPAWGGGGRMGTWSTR
Procedure: (§1) After the digestion was terminated, the cells were washed 2 times with a PBS buffer; and for suspension cell Raji, the supernatant of the medium was discarded by directly centrifugation, and the cell pellet was washed 2 times with PBS. After counting the cells in the previous step, the cell pellet was resuspended with [PBS+2% (w/w) BSA] blocking solution to 2×10⁶ cells/ml, and added to a 96-well FACS reaction plate at 50 μl/well, and then the sample to be tested was added at 50 μl/well, and incubated on ice for 2 h. The obtained mixture was centrifuged and washed 3 times with a PBS buffer. […] The obtained mixture was centrifuged and washed 5 times with a PBS buffer, and FACS (FACS Canto™, purchased from BD Company) was used for detection and result analysis. Data analysis was performed by software (FlowJo) to obtain the mean fluorescence intensity (MFI) of the cells. And then software (GraphPad Prism8) was used for analysis, data fitting, and EC50 value calculation. […] The same method was used to detect the binding of the chimeric antibodies to endogenous CD19-negative cells, MoLT4 cells (purchased from ATCC, CRL-1582), and CHO-K1 cells.

[3] = target: T4, human CD19 on CHO-K1-human CD19 cells (human, UniProt P15391 20-556); test: FACS on CHO-K1-human CD19 cells
T4 construct: whole, on cells; also called CHO-K1-human CD19-2C8
T4 sequence (looked up): T3 sequence (looked up)
Procedure: as §1

Human CD19-his protein [4] = target: T1, Human CD19-his protein; test: ELISA, coated human CD19-His
Procedure: Human CD19-his protein (purchased from ACROBiosystems, catalog number: CD9-H52H2) was diluted with PBS to a final concentration of 4 μg/mL, and then added to a 96-well ELISA plate at 100 μl/well. The plate was sealed with a plastic film and incubated overnight at 4° C., the plate was washed 2 times with PBS the next day, and then a blocking solution [PBS+2% (w/w) BSA] was added for blocking at room temperature for 2 h. The blocking solution was poured off, and 100 nM gradiently diluted CD19 chimeric antibody or control antibody was added at 50 μl/well. After incubation at 37° C. for 2 h, the plate was washed 3 times with PBS. […] TMB substrate was added at 50 μl/well, and incubated at room temperature for 10 min, and then a stop solution (1.0 N HCl) was added at 50 μl/well. The OD450 nm values were read by an ELISA microplate reader (Multimode Plate Reader, EnSight, purchased from Perkin Elmer).

Human CD19-his protein [5] = target: T1, Human CD19-his protein; test: ELISA on coated human CD19-His

Kd (Human CD19-his protein [1]): 0.00502 nM
koff (Human CD19-his protein [1]): 6.17e-07 s⁻¹
kon (Human CD19-his protein [1]): 123000 M⁻¹ s⁻¹
OD450 at 0.0001 nM [2]: 0.05 OD450
OD450 at 0.001 nM [2]: 0.05 OD450
OD450 at 0.01 nM [2]: 0.05 OD450
OD450 at 0.10 nM [2]: 0.05 OD450
OD450 at 1.00 nM [2]: 0.05 OD450
OD450 at 10 nM [2]: 0.05 OD450
OD450 at 100 nM [2]: 0.09 OD450
EC50 (human CD19 on Raji cells): 0.46 nM
Maximum mean fluorescence intensity (human CD19 on Raji cells): 32000 MFI
EC50 [3]: 1.1 nM
Maximum mean fluorescence intensity [3]: 54400 MFI
OD450 at 0.0001 nM (Human CD19-his protein [4]): 0.1 OD450
OD450 at 0.001 nM (Human CD19-his protein [4]): 0.14 OD450
OD450 at 0.01 nM (Human CD19-his protein [4]): 0.42 OD450
OD450 at 0.10 nM (Human CD19-his protein [4]): 1.61 OD450
OD450 at 1.00 nM (Human CD19-his protein [4]): 2.55 OD450
OD450 at 10 nM (Human CD19-his protein [4]): 2.49 OD450
OD450 at 100 nM (Human CD19-his protein [4]): 3.09 OD450
EC50 (read off the curve) (Human CD19-his protein [5]): ~0.05 nM
B1: F3.121.4-L1H3 (antibody, mouse IgG1, kappa)
heavy: EVQLVQSGAEVKKPGASVKVSCKASGYTFTNYWMHWVRQRPGQGLEWMGEIDPSDNYANYNQEFQGRVTITVDKSASTAYMELSSLRSEDTAVYYCARHDGYFGALDYWGQGTTVTVSSAKTTPPSVYPLAPGSAAQTNSMVTLGCLVKGYFPEPVTVTWNSGSLSSGVHTFPAVLQSDLYTLSSSVTVPSSTWPSETVTCNVAHPASSTKVDKKIVPRDCGCKPCICTVPEVSSVFIFPPKPKDVLTITLTPKVTCVVVDISKDDPEVQFSWFVDDVEVHTAQTQPREEQFNSTFRSVSELPIMHQDWLNGKEFKCRVNSAAFPAPIEKTISKTKGRPKAPQVYTIPPPKEQMAKDKVSLTCMITDFFPEDITVEWQWNGQPAENYKNTQPIMDTDGSYFVYSKLNVQKSNWEAGNTFTCSVLHEGLHNHHTEKSLSHSPGK
light: EIVLTQSPATLSLSPGERATLSCSASSSISSNYLHWYQQKPGQAPRFLIYRTSNLASGIPARFSGSGSGTDFTLTISSLEPEDFAVYYCQQASSIPRMFTFGQGTKLEIKRADAAPTVSIFPPSSEQLTSGGASVVCFLNNFYPKDINVKWKIDGSERQNGVLNSWTDQDSKDSTYSMSSTLTLTKDEYERHNSYTCEATHKTSTSPIVKSFNRNEC
notes: humanized antibody of F3.121.4, VL1+VH3, murine IgG1 constant regions

Kd (Human CD19-his protein [1]): 0.000205 nM
koff (Human CD19-his protein [1]): 1.86e-08 s⁻¹
kon (Human CD19-his protein [1]): 91100 M⁻¹ s⁻¹
OD450 at 0.0001 nM [2]: 0.05 OD450
OD450 at 0.001 nM [2]: 0.05 OD450
OD450 at 0.01 nM [2]: 0.05 OD450
OD450 at 0.10 nM [2]: 0.05 OD450
OD450 at 1.00 nM [2]: 0.05 OD450
OD450 at 10 nM [2]: 0.05 OD450
OD450 at 100 nM [2]: 0.08 OD450
EC50 (human CD19 on Raji cells): 0.44 nM
Maximum mean fluorescence intensity (human CD19 on Raji cells): 31600 MFI
EC50 [3]: 1.19 nM
Maximum mean fluorescence intensity [3]: 54700 MFI
OD450 at 0.0001 nM (Human CD19-his protein [4]): 0.1 OD450
OD450 at 0.001 nM (Human CD19-his protein [4]): 0.13 OD450
OD450 at 0.01 nM (Human CD19-his protein [4]): 0.39 OD450
OD450 at 0.10 nM (Human CD19-his protein [4]): 1.56 OD450
OD450 at 1.00 nM (Human CD19-his protein [4]): 2.51 OD450
OD450 at 10 nM (Human CD19-his protein [4]): 2.55 OD450
OD450 at 100 nM (Human CD19-his protein [4]): 2.67 OD450
EC50 (read off the curve) (Human CD19-his protein [5]): ~0.05 nM
B2: F3.121.4-L1H4 (antibody, mouse IgG1, kappa)
heavy: B1 heavy with V5Q
light: B1 light
notes: humanized antibody of F3.121.4, VL1+VH4, murine IgG1 constant regions
